Data published in patent US12077763B2, “RNA-based control of powdery mildew” (Greenlight Biosciences, Inc., priority 2021, dated 2024).

B1: GS1827: dsRNA trigger SEQ ID NO 195; gene target Ubiquitin-like modifier-activating enzyme 1 (nucleic acid)
DNA: AAAGTTATCGCCGAAGTCGCAGAATATATATCCAAATAATCCAAAGGTTTCAGTTATTACTACATATATTCCCTTCTCATGTAGATACTGGGAGATTATGAGCTGGTCTTTCAGTGGAATATCTGTCAATATTACAGCTTGATATGAATCAAACTGGGAGAGATCAGAAACTAAGCTTGTGGAGCTGTGAATCTTAACAGGGGTGTAAGCATTTAGTTCCGAAACTCGTTGAGCTGAGACAATATCTCTAGGTTTTCCTATATCTTCTGGGTTAAGAAAGAATTGAGATGATAGGTCAGCGATAGTTGCGGGAGCGGGATCGTATAATGTTAGACTTTTAACTCCAGCCAGAGCTATATTCTTAGCTATTTCGATACCAAGACCTTTCAAGCCAATAATAAGAATATTCGATGCACTCATTCGTTTCATAGCCTCGTGTCCAAGAACGTAGAGTTGCCTACTGTATAAAGACTCATCGATAACATTATTATTTTCTTGTGACTCATCAACTTCCATCTTCATCTTGTCTTCAATTTTACTGACTTCACTCATCTTGAATACTTCCTGTAAATCCAATTTACATCAACTGAATTA
B2: GS1830: dsRNA trigger SEQ ID NO 178; gene target Regulator of nonsense transcripts 1 homolog (nucleic acid)
DNA: CCGAGTTAAAGCTACATTTAAACGTCTTGGGTCACTTAAGAACCCAATTCCTTGATGGTCATTTGATCGAACACATGATAAAACAATGAAGTCTTTTTCACGCCCTTGAAAAGCATCGACTGAAGCAACTTCAATTTCCCTGTAGTTTTCTTTTTTAAAAGTACCAGTGTTTTGCATAGAGCTTACAACGTAACTTCGCTGACCTTCGTAAGGTGTAATAACTCCAATATCGGCAGGCTGAACACCTGCTTTGAAAAATCGGGTTACTATTTTTTCAACATTAGAAGCCTCTGTGCGATTAAGATATGATGTTCCTGAAGCAGAAATCTCTTCATTTCCGAGATTAGACCAAAACATCATCGGTGTATCTCCAACTGGCCAAGGAAAGTCAACTTCATCTCTAAGCCGCTCTTGCATCGTCACACCATTCTGGAGAGTTCCTTCATAGAACATATTTGACGGAAACTCTGATAGGCATGGATGCATACGATACTGGATATTGAGTCGAATAGGGTGCATTTCCAACATGACTAGACGTTCAAAAAGTGACTGATTTAAACCTGCTTTGGCAGCTTTTTTATTCATAATAAC
B3: GS1822: dsRNA trigger SEQ ID NO 206; gene target Putative phospholipid-transporting ATPase C6C3.06c (nucleic acid)
DNA: TCTCTTCGCGACCGATATCCATTTCCTGAGGGTAACAGAGAATGATCTTCAGCACTGTCTGGGTTGTATCTGCCAGTTCCCTCAACATCTGGGTCGTCCCTCAATAAGCTATGTAAGTCCTCTTCAGCGTAGTCTAAATTCCTTGGGGCCCCATTTCTTCTTCCTAACCCTCTGAATCCGCTCATGCGTAGATTTCTCAACGGAATATTGCTTTCAGTTCTCCAGTCATGCGCTTTCGGTTTGATCCCTTGTTCAAGCTCCTGGATATCTAAATCCAGATCGGAGTCCGAATCAGCTTGAGGTGGAATTTGATCGCCCTGATGATAATATGAGCCCGAAGACATGCCTCATTGTATTTTATCGTTTGATCTCTATAATCTCCTAGGTGATGTTATAAAGCTTGACCGCATAAAATCGGTTAATCATTTAAGCAAATGCAGTTGCGGTGTGTCATATCTTTCACGGCAGCATCTAGTATGTCTAGTATGGCTGCTACTGTATTTTAAATAAACCAAAACATGTTCAACACATTTCATAAGGTATAAGAAGGATTGTGAATATAATTTACTGGTAAATTTTAAATCATAGTTGAAAA
B4: GS1823: dsRNA trigger SEQ ID NO 158; gene target Guanine nucleotide-binding protein subunit beta-like protein (nucleic acid)
DNA: TAGCCAGTATCTGTTAGGCGAAAAAACAAGCGCATGGATCAAATCACCAGCATTGAGAGAATATAAATGCTTAGACTCATTTAGATCCCACAACATAGTAGTCCCATCTTTCCCACCTGATGCGCAGAGAGAACCGTCCGGCGAGATGGTGACAGTATTTATGTAACCATTGTGGCCAATATGGTCAGTCTGTAGTTTACAAGAGGATAATTCCCAGACCTTCACAAGTTTGTCCCAGCTACTGCTGACAATGACTGGATTTTGTGGATTTGGGCTGAATCGTACACAAGATACCCAATCATTATGACCTTTTTCAGTAATGGTGAACTTGCAATCACCTAGAGTATTCCAGAGCTTAATTGTTCGATCACGAGAGCCCGAGACAATTTGCCTGTTGTCAGCGGAAAAAGAAACAGAAAGAACATCATTTGTGTGGCCGACAAATCTCCTTGTTGTGGTTCCTGTTGCAAGCTCCCAGAGTCGGAGAGTTTTATCCCAAGAAGCAGATAGAGCATAAGCACCATCAGAAGAAATTACACAGTCGGAAACTATATGAGAGTGGCCATGAAGTGATCGCTTTGGGTAACCGTAGGAA
B5: GS1824: dsRNA trigger SEQ ID NO 200; gene target WD repeat domain-containing protein 83 (nucleic acid)
DNA: CTTGCCATCTCTTCCAACCTTTCTCTTACCATCAAACTTTGTTCCTTTTACTGTGATCCTCTCGACAAGTTTTCCGCTCAATGTATCCCAGACAACCACTTCACCATCTTGTCCTTCAATATTCTCGTTTCCAGAAAGTATCCATCTCTCTCTTCCACCAAAACAGTTCCATATTCGAAATTCTTTGTTTTCCCAGCAATCTGCACGATAACTCCTTAGTAATTTACCATTCTCGGTATCCATTAGTCTAAGCTGACTATCCAGTCCACCTACAAGTAGACCTTTTTTATCTATTGTCTTCCTTAGACATGTCACAGGAGCACCAATAACATCGACAACAATTTGTCCCATTCTAATGTCGTATTTCCTAACTTTTCCATCGACACTACTGGTCCATATCTCGCTATCACTCGCTAATACGCAGCTCACACTATCACCAGCCTCTGTTAGAACCATAACTGGCTTAGCACTCGAGCTCTTCACATCCCAGATACGAGCACTGGCATCAAAACCTCCACTAATAAGAAGACTGGCTCCATCCCCAGCAAAAGTAACGGTATTGATGCGTGCCGAATGACCATTGTTGCCACTAAAT
B6: GS1831: dsRNA trigger SEQ ID NO 115; gene target glycosyl_partial (nucleic acid)
DNA: CTGAATTGTTTTGAGACTGTTTATTACGAAACCCATTACTTTTGTCTTTGATATGGAATCTCCGATTGACAAACAATGTTTCGTCAGGTTTTGGTTCATAGCTAGTGGTCATTCCAATGGCACCTCTAATGTTATTAATAACAGTATTGAGTGATTGCTCAGGCATTAAACAAGCTGGGCGACATTCGGGTATATTTGAAACAGATTGTAAAATTTTGTCACGAAGGGTTGTTTCGTCTTGAAAATTTGGTCGCAAGCATAACTGGAGATTACGAAGTTGTTTTACTAATATTTCAAATACATCAAGCAATGGCTTTTCAGAATGTTGACTAGAAAGAAGTTGCAAGGTAATTTTGTTCCATTCATTCTGTGCATTTCTCTGTTTTTGTGGTCCTTCAAATTGGCCAAGCATTAATTGAGAGATTTCATCGATCTGTATTGCATTGCTACAGCGATGATGGTAGAAGTCTAATGCTTCTTTGTTAAACATTAAGAACATAGAAGACAGGATGTCTTTTTCATTTTCGATGCTCGCTAATTCGCATTTTTTCAAAAAGATGTTTAACTTGAAGTTATAGCTATCATCTTTT
B7: GS1826: dsRNA trigger SEQ ID NO 180; gene target Adenosylhomocysteinase (nucleic acid)
DNA: CGCGAGTAAGATTATATGACGACCATTCTTCATTAGAAAACGATCGACTTGGGGCTTAATATTTTGAACGCTTTGTGCATTAGCTTTAAGCCATGCGACATCTATTTCAATGTCAAAGTGTCCAATATTGCAAACAATAGCATCGTTAGGCATAACTTCAAAATGTTTTCCTACTAAAATGTCACGGCATCCTGTAGTAGTTACGAAGATCTGAGCTTGACTTGCGGCCTTTTCCATTGTGGTGACTTGGAAGCCAGAAACTGCAGCTTGTAAAGCATTTATAGGGTCAACCTCAGTAATTAGTACACGTGCACCCATACCCTGAAGAGCTAATGCACACCCTTTTCCAACATCACCAAAACCAGCAACAACGGCAATTTTTCCAGCAATCATAACATCGGTGGCTCGTTTAATACCATCGATCAAAGACTCGCGGCAGCCATAGAGATTGTCAAACTTAGACTTTGTGACAGAATCATTGACGTTAACCGCAGGCACGAGCAAAGTATTGTTTTTTAACATTTTATATAAATGGTGAACTCCAGTAGTGGTTTCCTCAGATACACCAAAGCAACCTTTTAACATTTCTGGATA
B8: GS1825: dsRNA trigger SEQ ID NO 141; gene target Serine/threonine-protein kinase cek1 (nucleic acid)
DNA: CGACCGATTAATCCCATTCTAGACAAGCCAAAATCTGTCAATTTAAGATGGCCTTTCTGATCAATTAAGAGATTGTCAGGTTTAAGATCTCGATGAACTATCCCTCGACTATGAAGATGTTTGACCCCTAGGATAACCTCACCTAAGTATTTTCTTGCCCAATCCTCTTGAAGACCGCCTAAAGCCTTTATAAGTGACGCACAGTCGCCTCCATTCAAATATTCCATAACCAAGTAGAGATAGTCTTTACTTGAGAATGTCCAGTATAATTTAGCTACAAAGTCACTCTCACCTTGCCACATCATGATTGCACGTTCAGCTTTAACGTTAGTTACCTGATTTTTGGCTACCATATCGGCTTTTTTAAGTACTTTGATTGCATAGTAGTCACCTGTAGATTTTTTCTTGGCAAGATAAACACTTCCGAATGCACCTTTACTGATAGGTTTTATTATTTCAAAGTCTTTTATGGAGGGTGGAACAATACGGGCTTGGGGAACACCGACAGTTGATAAACGAGGTGATGGAGGTAGTCGAGATGGGTCAGAGCCTGCAGCAGAAGATTGACGTCTATGGTGATGAGGTAGAAGAGCA

Test system: E. necator
Assay: Leaf disc assay, dry inoculum (settling tower), decrease in disease severity / hyphal growth (Example 2)
Details: decrease in disease severity (hyphal growth) relative to untreated control; time point 1 (untreated control hyphal growth ≥50%); value ± SE

Molecule	% decrease =/− SE TP1 [%]
B1	45 ± 2
B2	36 ± 4
B3	23 ± 5
B4	31 ± 8
B5	26 ± 7
B6	34 ± 6
B7	19 ± 6
B8	28 ± 5

Same assay, conditions: decrease in disease severity (hyphal growth) relative to untreated control; time point 2; value ± SE

Molecule	% decrease =/− SE TP2 [%]
B1	40 ± 4
B2	24 ± 5
B3	16 ± 4
B4	26 ± 8
B5	19.5 ± 8
B6	19 ± 6
B7	6 ± 5
B8	18 ± 6
